Assay results published in patent US20210261641A1 (Novo Nordisk, published 2021).

What was measured:
human GLP-1 receptor [1] = target: T1, human GLP-1 receptor (human, UniProt P43220 24-463); experiment: cell-based or functional assay
human GLP-1 receptor [2] = target: T1, human GLP-1 receptor; experiment: displacement of [125I]-GLP-1(7-36)NH2 from BHK membranes with human GLP-1R, SPA, low HSA
Description: 1. For the receptor binding assay in the presence of low HSA (0.001%) 50 μl of the assay buffer was added to each well of an assay plate. Assay continued with step 3. 2. For the receptor binding assay in the presence of high HSA (2.0%) 50 μl of the 8% albumin stock was added to each well of an assay plate. Assay continued with step 3. 3. Test compounds were serially diluted to give the following concentrations: 8×10⁻⁷ M, 8×10⁻⁸ M, 8×10⁻⁹ M, 8×10⁻¹° M, 8×10⁻¹¹ M, 8×10⁻¹² M and 8×10⁻¹³ M. Twenty-five μl were added to appropriate wells in the assay plate. 4. Cell membrane aliquots were thawed and diluted to their working concentration. Fifty μl were added to each well in the assay plate. 5. WGA SPA beads were suspended in assay buffer at 20 mg/ml. The suspension was diluted to 10 mg/ml in assay buffer just prior to addition to the assay plate. Fifty μl were added to each well in the assay plate. 6. The incubation was started by adding 25 μl of 480 pM solution of [¹²⁵I]-GLP-1]-(7-36) NH₂ to each well of the assay plate. A 25 μl aliquot was reserved for measuring total counts/well. 7. The assay plate was incubated for 2 h at 30° C. 8. The assay plate was centrifuged for 10 min. 9. The assay plate was read in a Packard TopCount NXT instrument.
The data from the TopCount instrument were transferred to GraphPad Prism software. The software averaged the values for the replicates and performed a non-linear regression. IC₅₀ values were calculated by the software and reported in nM.

[3] = target: T2, mouse transferrin receptor (mouse, UniProt Q62351 1-763); experiment: inhibition of uptake of 5 nM Cy5-labelled anti TfR-Fab into MEF-1 cells (mouse TfR), high-content imaging
T2 construct: whole, on cells; also called TfR
Description: The day before each assay the cells were plated out at 5000 cells/well. 2. On the assay day the cells were washed with HBSS containing 0.1% (w/v) HSA. 3. Test compounds were serially diluted to give the following concentrations: 2×10⁻⁶ M, 2×10⁻⁷ M, 2×10⁻⁸ M, 2×10⁻⁹ M, 2×10⁻¹° M, 2×10⁻¹¹ M, 2×10⁻¹² M and 2×10⁻¹³ M. 100 μl of each was added to appropriate wells in the assay plate. 4. To each of the wells the fluorescently-labelled Fab fragment was added to a final concentration of 5 nM. 5. The plates were incubated at 37° C. for 15 min. After incubation the buffer was removed and the cells were washed with HBSS containing 0.1% (w/v) HSA. 6. Fifty μl of cold 4% PFA was added in a fume hood. […] The assay plate was read in a high-content imaging instrument (IN Cell 2200 instrument, GE).
The data from the IN Cell instrument was analysed using the software that was supplied with the instrument. […] The amount of fluorescence that was internalised was calculated by defining granules visible in the Cy5 channel of the instrument and corresponded to internalised Cy5-labelled Fab fragment. The number and intensity of granules in each cell were calculated. The readout from the instrument that was used for further calculations was the total area of the granules divided by the number of cells in each acquisition field. […] IC50 values were calculated by the software and reported in nM.

T2 sequence (Q62351 whole entry): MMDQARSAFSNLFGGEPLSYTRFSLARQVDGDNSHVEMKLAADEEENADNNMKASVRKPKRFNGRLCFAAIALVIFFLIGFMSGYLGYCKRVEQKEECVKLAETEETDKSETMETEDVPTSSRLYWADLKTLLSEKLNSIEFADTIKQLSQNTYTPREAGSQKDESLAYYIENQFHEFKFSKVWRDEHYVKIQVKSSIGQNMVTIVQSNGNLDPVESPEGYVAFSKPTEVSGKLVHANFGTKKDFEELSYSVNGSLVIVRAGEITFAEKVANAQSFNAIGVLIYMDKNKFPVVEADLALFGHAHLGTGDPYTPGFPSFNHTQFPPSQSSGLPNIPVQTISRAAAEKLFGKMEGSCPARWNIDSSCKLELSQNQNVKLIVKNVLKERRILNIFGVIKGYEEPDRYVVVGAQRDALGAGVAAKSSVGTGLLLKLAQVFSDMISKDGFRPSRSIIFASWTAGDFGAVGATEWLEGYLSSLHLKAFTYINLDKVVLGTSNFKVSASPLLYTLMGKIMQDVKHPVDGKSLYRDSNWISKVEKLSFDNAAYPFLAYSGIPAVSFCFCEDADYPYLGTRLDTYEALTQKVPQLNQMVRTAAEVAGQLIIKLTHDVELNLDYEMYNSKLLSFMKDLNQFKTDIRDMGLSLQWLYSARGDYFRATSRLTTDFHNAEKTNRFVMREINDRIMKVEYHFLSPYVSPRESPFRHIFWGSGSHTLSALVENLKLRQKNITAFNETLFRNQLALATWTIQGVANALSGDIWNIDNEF

Binder | EC50/pM (0% HSA), in vitro potency, CRE luciferase reporter gene assay (human GLP-1 receptor [1]) [pM] | IC50 (human GLP-1 receptor [2]) [nM] | IC50 [3] [nM]
GLP-1 anti TNP-Fab fusion protein (compound of Example 5 / FIG. 5, SEQ ID NO: 8) (other, N-terminal residue found as pyroglutamic acid in the purified protein, Two-chain Fab fusion; also called GLP-1-(GGGS)4-aTNP light chain + aTNP-(His)10 heavy chain) light: HGEGTFTSDVSSYLEEQAAREFIAWLVKGRPGGGSGGGSGGGSGGGSDIVMTQTPLSLSVTPGQPASISCRSSQSLLHSNGNTYLHWYLQKPGQSPQLLIYKVSNRFSGVPDRFSGSGSGTDFTLKISRVEAEDVGVYYCSQSTHVPWTFGQGTKVEIKRTVAAPSVFIFPPSDEQLKSGTASVVCLLNNFYPREAKVQWKVDNALQSGNSQESVTEQDSKDSTYSLSSTLTLSKADYEKHKVYACEVTHQGLSSPVTKSFNRGEC heavy: QVQLQESGPGLVKPSETLSLTCTVSGGSISSGYWNWIRQPPGKGLEWIGTISYSGDTYYNPSLKSRVTISVDTSKNQFSLKLSSVTAADTAVYYCARYGSYVFDYWGQGTTVTVSSASTKGPSVFPLAPCSRSTSESTAALGCLVKDYFPEPVTVSWNSGALTSGVHTFPAVLQSSGLYSLSSVVTVPSSSLGTKTYTCNVDHKPSNTKVDKRVESKHHHHHHHHHH | 267 | 12.5 | –
Vivotag 750 labelled GLP-1 control Fab fusion protein (compound of Example 9 / FIG. 9) (other, VivoTag750 (NHS ester) randomly attached to amines; mixture of 0, 1, 2, 3 labels per molecule (average about 1), The label positions are not defined; also called fluorescence labelled GLP-1 control Fab fusion protein) light: HGEGTFTSDVSSYLEEQAAREFIAWLVKGRPGGGSGGGSGGGSGGGSDIVMTQTPLSLSVTPGQPASISCRSSQSLLHSNGNTYLHWYLQKPGQSPQLLIYKVSNRFSGVPDRFSGSGSGTDFTLKISRVEAEDVGVYYCSQSTHVPWTFGQGTKVEIKRTVAAPSVFIFPPSDEQLKSGTASVVCLLNNFYPREAKVQWKVDNALQSGNSQESVTEQDSKDSTYSLSSTLTLSKADYEKHKVYACEVTHQGLSSPVTKSFNRGEC heavy: EVQLVESGGGLVQPGNSLTLSCVASGFTFSNYGMHWIRQAPKKGLEWIAMIYYDSSKMNYADTVKGRFTISRDNSKNTLYLEMNSLRSEDTAMYYCAVPTSHYVVDVWGQGVSVTVSSAKTTPPSVYPLAPGSAAQTNSMVTLGCLVKGYFPEPVTVTWNSGSLSSGVHTFPAVLQSDLYTLSSSVTVPSSTWPSETVTCNVAHPASSTKVDKKIVPRDCGHHHHHHHHHH | 58.6 | 3.89 | –
GLP-1 control Fab fusion protein (compound of Example 7 / FIG. 7, SEQ ID NO: 12) (other, Hybrid of the anti-TNP light chain fusion and the anti-TfR heavy chain; also called hybrid construct) light: HGEGTFTSDVSSYLEEQAAREFIAWLVKGRPGGGSGGGSGGGSGGGSDIVMTQTPLSLSVTPGQPASISCRSSQSLLHSNGNTYLHWYLQKPGQSPQLLIYKVSNRFSGVPDRFSGSGSGTDFTLKISRVEAEDVGVYYCSQSTHVPWTFGQGTKVEIKRTVAAPSVFIFPPSDEQLKSGTASVVCLLNNFYPREAKVQWKVDNALQSGNSQESVTEQDSKDSTYSLSSTLTLSKADYEKHKVYACEVTHQGLSSPVTKSFNRGEC heavy: EVQLVESGGGLVQPGNSLTLSCVASGFTFSNYGMHWIRQAPKKGLEWIAMIYYDSSKMNYADTVKGRFTISRDNSKNTLYLEMNSLRSEDTAMYYCAVPTSHYVVDVWGQGVSVTVSSAKTTPPSVYPLAPGSAAQTNSMVTLGCLVKGYFPEPVTVTWNSGSLSSGVHTFPAVLQSDLYTLSSSVTVPSSTWPSETVTCNVAHPASSTKVDKKIVPRDCGHHHHHHHHHH | 52.4 | 2.39 | –
GLP-1 control Fab conjugate (compound of Example 14 / FIG. 14) (other, epsilon amino group of Lys at position 36 (GLP-1(7-37) numbering) carries the linker -Ado-gGlu-Ado-, joined via -CH2-C(O)- to Cys 382 of the Fab; thiol of Cys 382 (numbering of FIG. 14 / SEQ ID NO: 5) linked via Chem. 2 -CH2-C(O)-Ado-gGlu-Ado- to the GLP-1 analogue) light: DIVMTQTPLSLSVTPGQPASISCRSSQSLLHSNGNTYLHWYLQKPGQSPQLLIYKVSNRFSGVPDRFSGSGSGTDFTLKISRVEAEDVGVYYCSQSTHVPWTFGQGTKVEIKRTVAAPSVFIFPPSDEQLKSGTASVVCLLNNFYPREAKVQWKVDNALQSGNSQESVTEQDSKDSTYSLSSTLTLSKADYEKHKVYACEVTHQGLSSPVTKSFNRGEC heavy: EVQLVESGGGLVQPGNSLTLSCVASGFTFSNYGMHWIRQAPKKGLEWIAMIYYDSSKMNYADTVKGRFTISRDNSKNTLYLEMNSLRSEDTAMYYCAVPTSHYVVDVWGQGVSVTVSSASTKGPSVFPLAPCSRSTSESTAALGCLVKDYFPEPVTVSWNSGCLTSGVHTFPAVLQSSGLYSLSSVVTVPSSSLGTKTYTCNVDHKPSNTKVDKRVESK peptide: HGEGTFTSDVSSYLEEQAAREFIAWLVRGKG | 818 | 55.9 | –
GLP-1 anti TfR-Fab conjugate (compound of Example 15 / FIG. 15) (other, epsilon amino group of Lys at position 36 (GLP-1(7-37) numbering) carries the linker -Ado-gGlu-Ado-, joined via -CH2-C(O)- to Cys 377 of the Fab; thiol of Cys 377 (numbering of FIG. 15 / SEQ ID NO: 3) linked via Chem. 2 -CH2-C(O)-Ado-gGlu-Ado- to the GLP-1 analogue) light: DIQMTQSPASLSASLEEIVTITCQASQDIGNWLAWYQQKPGKSPQLLIYGATSLADGVPSRFSGSRSGTQFSLKISRVQVEDIGIYYCLQAYNTPWTFGGGTKLELKRTVAAPSVFIFPPSDEQLKSGTASVVCLLNNFYPREAKVQWKVDNALQSGNSQESVTEQDSKDSTYSLSSTLTLSKADYEKHKVYACEVTHQGLSSPVTKSFNRGEC heavy: EVQLVESGGGLVQPGNSLTLSCVASGFTFSNYGMHWIRQAPKKGLEWIAMIYYDSSKMNYADTVKGRFTISRDNSKNTLYLEMNSLRSEDTAMYYCAVPTSHYVVDVWGQGVSVTVSSASTKGPSVFPLAPCSRSTSESTAALGCLVKDYFPEPVTVSWNSGCLTSGVHTFPAVLQSSGLYSLSSVVTVPSSSLGTKTYTCNVDHKPSNTKVDKRVESK peptide: HGEGTFTSDVSSYLEEQAAREFIAWLVRGKG | 435 | 32.5 | 17.4
GLP-1 anti TfR-Fab fusion protein (compound of Example 6 / FIG. 6, SEQ ID NO: 11) (other, Two-chain Fab fusion; also called GLP-1-(GGGS)4-aTfR light chain + aTfR-(His)10 heavy chain) light: HGEGTFTSDVSSYLEEQAAREFIAWLVKGRPGGGSGGGSGGGSGGGSDIQMTQSPASLSASLEEIVTITCQASQDIGNWLAWYQQKPGKSPQLLIYGATSLADGVPSRFSGSRSGTQFSLKISRVQVEDIGIYYCLQAYNTPWTFGGGTKLELKRADAAPTVSIFPPSSEQLTSGGASVVCFLNNFYPKDINVKWKIDGSERQNGVLNSWTDQDSKDSTYSMSSTLTLTKDEYERHNSYTCEATHKTSTSPIVKSFNRNEC heavy: EVQLVESGGGLVQPGNSLTLSCVASGFTFSNYGMHWIRQAPKKGLEWIAMIYYDSSKMNYADTVKGRFTISRDNSKNTLYLEMNSLRSEDTAMYYCAVPTSHYVVDVWGQGVSVTVSSAKTTPPSVYPLAPGSAAQTNSMVTLGCLVKGYFPEPVTVTWNSGSLSSGVHTFPAVLQSDLYTLSSSVTVPSSTWPSETVTCNVAHPASSTKVDKKIVPRDCGHHHHHHHHHH | 48.3 | 3.28 | –
Vivotag 750 labelled GLP-1 anti TfR-Fab fusion protein (compound of Example 8 / FIG. 8) (other, VivoTag750 (NHS ester) randomly attached to amines; mixture of 0, 1, 2, 3 labels per molecule (average about 1), The label positions are not defined; also called GLP-1-Active TfR; fluorescence labelled GLP-1 anti TfR-Fab fusion protein) light: HGEGTFTSDVSSYLEEQAAREFIAWLVKGRPGGGSGGGSGGGSGGGSDIQMTQSPASLSASLEEIVTITCQASQDIGNWLAWYQQKPGKSPQLLIYGATSLADGVPSRFSGSRSGTQFSLKISRVQVEDIGIYYCLQAYNTPWTFGGGTKLELKRADAAPTVSIFPPSSEQLTSGGASVVCFLNNFYPKDINVKWKIDGSERQNGVLNSWTDQDSKDSTYSMSSTLTLTKDEYERHNSYTCEATHKTSTSPIVKSFNRNEC heavy: EVQLVESGGGLVQPGNSLTLSCVASGFTFSNYGMHWIRQAPKKGLEWIAMIYYDSSKMNYADTVKGRFTISRDNSKNTLYLEMNSLRSEDTAMYYCAVPTSHYVVDVWGQGVSVTVSSAKTTPPSVYPLAPGSAAQTNSMVTLGCLVKGYFPEPVTVTWNSGSLSSGVHTFPAVLQSDLYTLSSSVTVPSSTWPSETVTCNVAHPASSTKVDKKIVPRDCGHHHHHHHHHH | 92.8 | 9.61 | –
